From US20040014131A1, “Assay methods” (Pfizer Inc., priority 2002, published 2004)
Blank lines part the entries; values can stand above or below the molecule they belong to. [ ]: non-standard residue; d: D form. QSY7 = QSY-7 (maleimide) on Cys; βAla = NCCC(=O)O

How the values were obtained:
human SEP = molecular target: T1, human SEP (Homo sapiens, UniProt Q495T6); experiment: human SEP activity, sensitivity to inhibitors; format: biochemical
T1 construct: The full length human SEP clone was termed MSSE82; made in house; host or cells: CHO cells transfected with plasmid MSSE82; dialysed culture medium used as enzyme
T1 sequence (Q495T6 75-779 limits assumed): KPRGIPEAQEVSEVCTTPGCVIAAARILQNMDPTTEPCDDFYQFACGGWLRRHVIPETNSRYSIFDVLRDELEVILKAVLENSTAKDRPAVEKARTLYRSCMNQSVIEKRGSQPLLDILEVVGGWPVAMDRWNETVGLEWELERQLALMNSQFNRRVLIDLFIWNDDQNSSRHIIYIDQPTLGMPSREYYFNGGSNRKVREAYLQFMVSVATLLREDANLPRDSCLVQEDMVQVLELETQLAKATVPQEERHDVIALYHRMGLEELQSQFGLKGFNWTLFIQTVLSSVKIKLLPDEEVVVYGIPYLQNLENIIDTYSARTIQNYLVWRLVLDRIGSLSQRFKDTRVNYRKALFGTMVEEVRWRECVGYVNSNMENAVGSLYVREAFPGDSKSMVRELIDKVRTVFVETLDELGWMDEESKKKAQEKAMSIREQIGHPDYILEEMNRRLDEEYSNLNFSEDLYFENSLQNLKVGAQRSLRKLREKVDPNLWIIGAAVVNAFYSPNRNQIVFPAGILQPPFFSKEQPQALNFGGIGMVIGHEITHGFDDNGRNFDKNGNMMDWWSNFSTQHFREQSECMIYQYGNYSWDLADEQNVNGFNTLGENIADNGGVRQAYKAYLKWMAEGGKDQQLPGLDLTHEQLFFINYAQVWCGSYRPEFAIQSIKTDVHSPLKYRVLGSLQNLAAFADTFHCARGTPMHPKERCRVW
Procedure: The enzymatic (proteolytic) activity of human SEP protein can be measured in an assay involving, for example, mixing a sample of the human SEP enzyme with a substrate peptide in a buffer solution (for example 50 mM HEPES; pH 7.4), incubating the mixture for a period of time (such as 1-3 hours) enough for human SEP to act to cleave a measurable portion of the peptide substrate to a product at a temperature suitable for SEP activity (typically 30-37° C.).
The effect of candidate human SEP inhibitor compounds or control test compounds such as phosphoramidon and thiorphan that may alter the activity of human SEP can be measured in this type of assay by including them in the initial mixture at a range of suitable test concentrations, typically 0.1 nM to 50 μM.
To determine the IC50 of SEP inhibitors (SEPi; for example, phosphoramidon), multiple SEP assays are performed as described above with a range of test concentrations of inhibitor included in the 50 μl of DMSO solution (made by appropriate dilution of a 10 mM 100% DMSO stock of inhibitor with 4% DMSO/50 mM HEPES pH7.4.). Using a suitable standard graph fitting computer program, a sigmoidal dose response curve is fitted to a plot of log inhibitor concentration versus MaxV (or % inhibition or % activity). The IC50 is calculated as the inhibitor concentration causing 50% maximal inhibition. […]

mouse SEP = molecular target: T2, mouse SEP (Mus musculus, UniProt Q9JLI3); details: cited from earlier work
T2 sequence (Q9JLI3 1-765): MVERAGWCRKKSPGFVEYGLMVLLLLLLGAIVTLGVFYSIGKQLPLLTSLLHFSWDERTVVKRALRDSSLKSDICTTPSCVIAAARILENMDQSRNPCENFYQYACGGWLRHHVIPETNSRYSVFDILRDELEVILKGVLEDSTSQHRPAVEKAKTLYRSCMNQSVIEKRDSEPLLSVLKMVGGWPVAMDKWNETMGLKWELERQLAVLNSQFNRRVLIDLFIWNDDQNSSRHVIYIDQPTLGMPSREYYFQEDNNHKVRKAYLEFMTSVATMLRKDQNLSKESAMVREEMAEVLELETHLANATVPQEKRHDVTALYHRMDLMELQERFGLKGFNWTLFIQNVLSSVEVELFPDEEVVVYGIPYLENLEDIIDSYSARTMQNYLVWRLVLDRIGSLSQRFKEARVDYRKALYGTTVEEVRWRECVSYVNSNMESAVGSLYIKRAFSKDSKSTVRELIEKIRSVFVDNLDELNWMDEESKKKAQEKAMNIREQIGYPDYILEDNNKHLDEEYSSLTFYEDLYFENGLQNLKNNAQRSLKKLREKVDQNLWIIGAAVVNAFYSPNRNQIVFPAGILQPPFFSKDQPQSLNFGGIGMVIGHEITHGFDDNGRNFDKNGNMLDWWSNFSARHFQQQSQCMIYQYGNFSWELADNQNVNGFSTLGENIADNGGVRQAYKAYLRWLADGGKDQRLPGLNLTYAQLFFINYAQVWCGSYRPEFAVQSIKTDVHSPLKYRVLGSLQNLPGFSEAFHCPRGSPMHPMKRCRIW

[1] = molecular target: T3, Recombinant human NEP enzyme (Homo sapiens, UniProt P08473); experiment: NEP FRET assay (384 well, homogeneous); format: biochemical; details: steady state kinetics of NEP enzyme with the peptide substrate
T3 construct: made in house; host or cells: Pichia pastoris
T3 sequence (P08473 whole entry): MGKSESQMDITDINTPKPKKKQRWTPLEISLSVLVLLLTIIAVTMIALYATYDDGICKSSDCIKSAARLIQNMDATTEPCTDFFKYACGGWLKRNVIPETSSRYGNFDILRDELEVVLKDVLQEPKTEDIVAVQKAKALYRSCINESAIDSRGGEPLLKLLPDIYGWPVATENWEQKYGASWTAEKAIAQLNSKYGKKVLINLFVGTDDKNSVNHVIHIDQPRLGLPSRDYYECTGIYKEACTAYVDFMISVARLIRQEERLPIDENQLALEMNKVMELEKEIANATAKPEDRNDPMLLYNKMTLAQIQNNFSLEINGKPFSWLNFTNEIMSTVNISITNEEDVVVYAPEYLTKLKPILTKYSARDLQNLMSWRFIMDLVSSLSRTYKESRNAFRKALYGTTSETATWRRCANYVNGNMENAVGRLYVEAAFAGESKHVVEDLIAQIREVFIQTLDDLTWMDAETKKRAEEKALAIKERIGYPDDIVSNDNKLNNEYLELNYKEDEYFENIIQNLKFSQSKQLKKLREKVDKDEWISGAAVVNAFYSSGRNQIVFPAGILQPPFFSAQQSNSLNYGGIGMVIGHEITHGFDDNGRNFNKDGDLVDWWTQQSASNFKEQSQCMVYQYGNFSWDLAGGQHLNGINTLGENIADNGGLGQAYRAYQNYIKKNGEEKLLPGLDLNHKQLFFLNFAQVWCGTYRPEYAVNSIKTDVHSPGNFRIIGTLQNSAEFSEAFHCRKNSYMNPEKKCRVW
Procedure: All assays were conducted in 384 well black, flat bottom plates, purchased from Matrix Technologies Ltd. (Cheshire, UK).
Compounds for screening were supplied as singles at 40 μM in 1% DMSO to achieve a final screening concentration of 10 μM.
The peptide substrate (Rhodamine green-Gly-Gly-dPhe-Leu-Arg-Arg-Val-Cys(QSY™7)-βAla-NH2) (SEQ ID NO: 8) was made as described above and labelled with fluorophores purchased from Molecular Probes, Inc. All other reagents were purchased from Sigma/Aldrich (Poole, Dorset, UK).
Recombinant human NEP enzyme was expressed using Pichia pastoris and purified to homogeneity using a three-step purification procedure.
All assays were performed in 50 mM Hepes buffer pH 8, 0.1% v/v pluronic-F127 and 1% v/v protease inhibitor cocktail (antipain, aprotinin, leupeptin, pepstatin A). 10 μl of compound in 1% DMSO was added to each well, followed by 20 μl of recombinant enzyme (10 nM final concentration). The reaction was initiated by the addition of 10 μl of substrate (1 μM final concentration) and plates were incubated at 25° C. for one hour. Termination of the reaction was achieved by the addition of 20 μl of Stop (excess of a known inhibitor) to a concentration of 10 μM in the well. Plates were counted using Tecan Ultra (485 nm excitation, 535 nm emission; Tecan Austria, Salzburg, Austria). […]

[2] = molecular target: T4, Rhodamine green-Gly-Gly-dPhe-Leu-Arg-Arg-Val-Cys(QSY7)-betaAla-NH2
T4 chain: GGFLRRVCA

sensitivity of human SEP to inhibitor (human SEP): sensitive
Molecule: CC(C)C[C@H](NP(=O)(O)O[C@@H]1O[C@@H](C)[C@H](O)[C@@H](O)[C@H]1O)C(=O)N[C@@H](Cc1c[nH]c2ccccc12)C(=O)O [phosphoramidon]
sensitivity of mouse SEP to inhibitor (mouse SEP): sensitive

Molecule: O=C(O)CNC(=O)C(CS)Cc1ccccc1 (centres unmarked) [thiorphan]
sensitivity of human SEP to inhibitor (human SEP): sensitive
sensitivity of mouse SEP to inhibitor (mouse SEP): sensitive

Molecule: Rhodamine green-Gly-Gly-dPhe-Leu-Arg-Arg-Val-Cys(QSY™7)-βAla-NH2 ({Rhodamine green}-GG[dF]LRRVC(QSY7)[βAla]-NH2) [CP4]
Kcat [1]: 0.083 s⁻¹
Km ([1]; 50 mM Hepes pH 8, 25° C.): 8 µM

B1: human soluble secreted endopeptidase (human SEP), recombinant (protein)
chain: RKPRGIPEAQEVSEVCTTPGCVIAAARILQNMDPTTEPCDDFYQFACGGWLRRHVIPETNSRYSIFDVLRDELEVILKAVLENSTAKDRPAVEKARTLYRSCMNQSVIEKRGSQPLLDILEVVGGWPVAMDRWNETVGLEWELERQLALMNSQFNRRVLIDLFIWNDDQNSSRHIIYIDQPTLGMPSREYYFNGGSNRKVREAYLQFMVSVATLLREDANLPRDSCLVQEDMVQVLELETQLAKATVPQEERHDVIALYHRMGLEELQSQFGLKGFNWTLFIQTVLSSVKIKLLPDEEVVVYGIPYLQNLENIIDTYSARTIQNYLVWRLVLDRIGSLSQRFKDTRVNYRKALFGTMVEEVRWRECVGYVNSNMENAVGSLYVREAFPGDSKSMVRELIDKVRTVFVETLDELGWMDEESKKKAQEKAMSIREQIGHPDYILEEMNRRLDEEYSNLNFSEDLYFENSLQNLKVGAQRSLRKLREKVDPNLWIIGAAVVNAFYSPNRNQIVFPAGILQPPFFSKEQPQALNFGGIGMVIGHEITHGFDDNGRNFDKNGNMMDWWSNFSTQHFREQSECMIYQYGNYSWDLADEQNVNGFNTLGENIADNGGVRQAYKAYLKWMAEGGKDQQLPGLDLTHEQLFFINYAQVWCGSYRPEFAIQSIKTDVHSPLKYRVLGSLQNLAAFADTFHCARGTPMHPKERCRVW
cleavage of the FRET substrate, monitored by fluorescence [2]: CP4 is cleaved by endopeptidases NEP or SEP, creating the cleavage product Rhodamine green-Gly-Gly-dPhe-Leu-Arg-Arg-OH

B2: Recombinant human NEP enzyme (neutral endopeptidase, neprilysin, EC 3.4.24.11) (protein)
chain: DDGICKSSDCIKSAARLIQNMDATTEPCTDFFKYACGGWLKRNVIPETSSRYGNFDILRDELEVVLKDVLQEPKTEDIVAVQKAKALYRSCINESAIDSRGGEPLLKLLPDIYGWPVATENWEQKYGASWTAEKAIAQLNSKYGKKVLINLFVGTDDKNSVNHVIHIDQPRLGLPSRDYYECTGIYKEACTAYVDFMISVARLIRQEERLPIDENQLALEMNKVMELEKEIANATAKPEDRNDPMLLYNKMTLAQIQNNFSLEINGKPFSWLNFTNEIMSTVNISITNEEDVVVYAPEYLTKLKPILTKYSARDLQNLMSWRFIMDLVSSLSRTYKESRNAFRKALYGTTSETATWRRCANYVNGNMENAVGRLYVEAAFAGESKHVVEDLIAQIREVFIQTLDDLTWMDAETKKRAEEKALAIKERIGYPDDIVSNDNKLNNEYLELNYKEDEYFENIIQNLKFSQSKQLKKLREKVDKDEWISGAAVVNAFYSSGRNQIVFPAGILQPPFFSAQQSNSLNYGGIGMVIGHEITHGFDDNGRNFNKDGDLVDWWTQQSASNFKEQSQCMVYQYGNFSWDLAGGQHLNGINTLGENIADNGGLGQAYRAYQNYIKKNGEEKLLPGLDLNHKQLFFLNFAQVWCGTYRPEYAVNSIKTDVHSPGNFRIIGTLQNSAEFSEAFHCRKNSYMNPEKKCRVW
Kcat [2]: 0.083 s⁻¹
Kcat/Km [2]: 10,500 M^-1 S^-1
Km [2]: 8 µM
cleavage of the FRET substrate, monitored by fluorescence [2]: CP4 is cleaved by endopeptidases NEP or SEP, creating the cleavage product Rhodamine green-Gly-Gly-dPhe-Leu-Arg-Arg-OH
